In experiment [1] the target is bc1 complex (Complex III), dimer (S. cerevisiae (endogenous in BY4741 mitochondria)) (UniProt P07256). The experiment can be described thus: native gel or EMSA; BN-PAGE (3-12% NativePage Bis-Tris) of mitochondria solubilised in 2% digitonin, then Western blot or second-dimension SDS-PAGE and immuno decoration; comigration; cells grown in YPGal, YPD or YPG; wild type, rcf1Δ, rcf2Δ and truncation strains. In general terms: Mobility shift assays separate free from complexed probe on a gel.

The target in experiment [2] is respiratory supercomplexes (III2IV and III2IV2) of bc1 complex and cytochrome c oxidase (S. cerevisiae (endogenous in BY4741 mitochondria)) (UniProt P07256). The experiment is described as above.

In experiment [1], “cytochrome c oxidase (Complex IV), monomeric (from UniProt P00401 1-534; P00410 16-251; P00420 1-269; P04037 26-155; P00424 21-153; P00427 41-148; Q01519 1-83; P32799 10-129)” returned a fold change of the share residing in supercomplexes, YPG against YPD of 1.4 fold.

B1: Rcf2 (respiratory supercomplex factor 2) (natural protein)
chain: MKILTQDEIEAHRSHTLKGGIEGALAGFAISAIIFKVLPRRYPKFKPSTLTWSIKTALWITPPTVLTAICAEEASNNFDATMYGSGSSSEDALDEHRRWKSLSTKDKFVEGLSNNKYKIITGAWAASLYGSWVIVNKDPIMTKAQKIVQARMYAQFITVGLLLASVGLSMYENKLHPNKQKVNEMRRWENALRVAEEEERLEKEGRRTGYVSNEERINSKIFKS
Regarding B1, the fold change of the share residing in supercomplexes, YPG against YPD in experiment [2] came out at 3.7 fold.

B2: Rcf1 (respiratory supercomplex factor 1) (natural protein)
chain: MSRMPSSFDVTERDLDDMTFGERIIYHCKKQPLVPIGCLLTTGAVILAAQNVRLGNKWKAQYYFRWRVGLQAATLVALVAGSFIYGTSGKELKAKEEQLKEKAKMREKLWIQELERREEETEARRKRAELARMKTLENEEEIKNLEKELSDLENKLGKK
Turning to B2, in experiment [2], the fold change of the share residing in supercomplexes, YPG against YPD came out at 2.5 fold.
